Results: ChEMBL document CHEMBL4043266, “Pentacyclic triterpenes as α-glucosidase and α-amylase inhibitors: Structure-activity relationships and the synergism with acarbose” (Bioorg Med Chem Lett, 2017)

Legend:
Details in all cases: Sus scrofa
[1] = compound: C[C@H]1[C@H](C)CC[C@]2(C(=O)O)CC[C@]3(C)C(=CC[C@@H]4[C@@]5(C)C[C@@H](O)[C@H](O)C(C)(C)[C@@H]5CC[C@]43C)[C@H]12; assay: Inhibition of porcine pancreatic alpha-amylase assessed as Km for substrate using starch as substrate at 31.2 uM by Michaelis-Menten plot analysis (reference value: 2.48 +/- 0.24 mg/ml)
[2] = compound: C[C@H]1[C@H](C)CC[C@]2(C(=O)O)CC[C@]3(C)C(=CC[C@@H]4[C@@]5(C)C[C@@H](O)[C@H](O)C(C)(C)[C@@H]5CC[C@]43C)[C@H]12; assay: Inhibition of porcine pancreatic alpha-amylase assessed as Km for substrate using starch as substrate at 15.6 uM by Michaelis-Menten plot analysis (reference value: 2.48 +/- 0.24 mg/ml)
[3] = compound: C[C@H]1[C@H](C)CC[C@]2(C(=O)O)CC[C@]3(C)C(=CC[C@@H]4[C@@]5(C)C[C@@H](O)[C@H](O)C(C)(C)[C@@H]5CC[C@]43C)[C@H]12; assay: Inhibition of porcine pancreatic alpha-amylase assessed as Vmax for substrate using starch as substrate at 31.2 uM by Michaelis-Menten plot analysis (reference value: 28.6 +/- 1.8 microg/ml/min)
[4] = compound: C[C@H]1[C@H](C)CC[C@]2(C(=O)O)CC[C@]3(C)C(=CC[C@@H]4[C@@]5(C)C[C@@H](O)[C@H](O)C(C)(C)[C@@H]5CC[C@]43C)[C@H]12; assay: Inhibition of porcine pancreatic alpha-amylase assessed as Vmax for substrate using starch as substrate at 15.6 uM by Michaelis-Menten plot analysis (reference value: 28.6 +/- 1.8 microg/ml/min)

B1: Pancreatic alpha-amylase (Sus scrofa), P00690 (protein)
chain: MKLFLLLSAFGFCWAQYAPQTQSGRTSIVHLFEWRWVDIALECERYLGPKGFGGVQVSPPNENIVVTNPSRPWWERYQPVSYKLCTRSGNENEFRDMVTRCNNVGVRIYVDAVINHMCGSGAAAGTGTTCGSYCNPGNREFPAVPYSAWDFNDGKCKTASGGIESYNDPYQVRDCQLVGLLDLALEKDYVRSMIADYLNKLIDIGVAGFRIDASKHMWPGDIKAVLDKLHNLNTNWFPAGSRPFIFQEVIDLGGEAIQSSEYFGNGRVTEFKYGAKLGTVVRKWSGEKMSYLKNWGEGWGFMPSDRALVFVDNHDNQRGHGAGGASILTFWDARLYKVAVGFMLAHPYGFTRVMSSYRWARNFVNGQDVNDWIGPPNNNGVIKEVTINADTTCGNDWVCEHRWRQIRNMVWFRNVVDGQPFANWWANGSNQVAFGRGNRGFIVFNNDDWQLSSTLQTGLPGGTYCDVISGDKVGNSCTGIKVYVSSDGTAQFSISNSAEDPFIAIHAESKL
Km [1]: 2.69 mg/mL | Km [2]: 2.28 mg/mL | Vmax [3]: 14.3 µg/mL/min | Vmax [4]: 21 µg/mL/min
